Source: PMC4960319, “The anti-sigma factor RsrA responds to oxidative stress by reburying its hydrophobic core” (Nature Communications, 2016)
Changes are numbered by the printed parent chain. Names and notes keep the numbering of the source. Values joined by “and” are separate entries in the source; they are usually repeats but may differ in a detail not shown here. Equal entries are not always repeated.

Columns and labels:
Details in all cases: both partners purified
σR (residues 5-227) [1] = target: T1, σR (residues 5-227) (Streptomyces coelicolor, UniProt Q7AKG9 5-227); experiment: stopped-flow tryptophan fluorescence; 35 °C, without zinc (EDTA-treated RsrA); kon: pseudo-first-order, σR 125 nM, RsrA 1.25-2.5 μM; koff: 2.5 μM complex displaced with 25 μM σR Trp88Ile Trp119Ile; Kd = koff/kon; 50 mM Tris pH 7.5, 100 mM NaCl, 2 mM DTT
T1 construct: ECF sigma factor σR (SigR) of Streptomyces coelicolor; residues 5-227 subcloned into pET21a with a C-terminal stop codon for tagless expression; also called sigma factor σR; SigR; source: E. coli BL21(DE3), purified without tags (ammonium sulfate precipitation, Q-Sepharose, Hi-Load S75)

σR (residues 5-227) [2] = target: T1, σR (residues 5-227); experiment: stopped-flow tryptophan fluorescence; 25 °C, without zinc (EDTA-treated RsrA); kon: pseudo-first-order, σR 125 nM, RsrA 1.25-2.5 μM; koff: 2.5 μM complex displaced with 25 μM σR Trp88Ile Trp119Ile; Kd = koff/kon; 50 mM Tris pH 7.5, 100 mM NaCl, 2 mM DTT
σR (residues 5-227) [3] = target: T1, σR (residues 5-227); experiment: stopped-flow tryptophan fluorescence; 25 °C, with zinc; kon: pseudo-first-order, σR 125 nM, RsrA 1.25-2.5 μM; koff: 2.5 μM complex displaced with 25 μM σR Trp88Ile Trp119Ile; Kd = koff/kon; 50 mM Tris pH 7.5, 100 mM NaCl, 2 mM DTT
σR Trp88Ile Trp119Ile = target: T2, σR Trp88Ile Trp119Ile (Streptomyces coelicolor, UniProt Q7AKG9 5-227, Trp88Ile | Trp119Ile); experiment: ITC; competition ITC as for the wild-type complex (Figure 3a): RsrAred.Zn2+ (100 μM) titrated into σR (10 μM, cell) in the presence of 50 μM weak competitor RsrA* Cys11Ser Cys44Ser; 35 °C, 50 mM Tris pH 7.5, 100 mM NaCl, 2 mM DTT
T2 construct: ECF sigma factor σR (SigR) of Streptomyces coelicolor; mutant of the tagless construct of residues 5-227 (all σR mutants were similarly purified); The limits are those of the wild-type construct; source: E. coli BL21(DE3), purified as wild-type σR

σR (residues 5-227) [4] = target: T1, σR (residues 5-227); experiment: stopped-flow tryptophan fluorescence; 35 °C, with zinc; kon: pseudo-first-order, σR 125 nM, RsrA 1.25-2.5 μM; koff: 2.5 μM complex displaced with 25 μM σR Trp88Ile Trp119Ile; Kd = koff/kon; 50 mM Tris pH 7.5, 100 mM NaCl, 2 mM DTT
[5] = target: T3, σ^R (sigma factor SigR) from Streptomyces coelicolor, residues 5-227, tagless (Streptomyces coelicolor, UniProt Q7AKG9 5-227); experiment: ITC; direct titration in the absence of zinc: RsrA^red (100 μM), σ^R (10 μM); 35 °C, 50 mM Tris pH 7.5, 100 mM NaCl, 2 mM DTT; single site model
T3 construct: ECF sigma factor σ^R (SigR) of Streptomyces coelicolor, residues 5-227 subcloned into pET21a (NdeI, BamHI) with a C-terminal stop codon; also called wild-type σ^R; source: E. coli BL21(DE3), pET21a, purified without tags (ammonium sulfate, Q-Sepharose, Hi-Load S75)

[6] = target: T3, σ^R (sigma factor SigR) from …; experiment: stopped-flow tryptophan fluorescence; dissociation by competition, without zinc (apo-RsrA): 2.5 μM complex mixed with 25 μM σ^R Trp88Ile Trp119Ile (10-fold excess); 25 °C, 50 mM Tris pH 7.5, 100 mM NaCl
[7] = target: T3, σ^R (sigma factor SigR) from …; experiment: stopped-flow tryptophan fluorescence; dissociation by competition, with zinc: 2.5 μM complex mixed with 25 μM σ^R Trp88Ile Trp119Ile (10-fold excess); 25 or 35 °C, 50 mM Tris pH 7.5, 100 mM NaCl
[8] = target: T3, σ^R (sigma factor SigR) from …; experiment: ITC; competition ITC: RsrA^red.Zn^2+ (100 μM) titrated into σ^R (10 μM) with 50 μM weak-binding RsrA mutant in the cell; 35 °C, 50 mM Tris pH 7.5, 100 mM NaCl, 2 mM DTT; competitive binding model
[9] = target: T3, σ^R (sigma factor SigR) from …; experiment: ITC; RsrA mutants (values in Supplementary Table 1); 35 °C, 50 mM Tris pH 7.5, 100 mM NaCl, 2 mM DTT; direct titration for weaker binding mutants (10 μM RsrA in the cell, 100 μM σ^R in the syringe); RsrA preincubated with ZnCl2 and buffer exchanged where zinc was included
σR (residues 5-227) [10] = target: T1, σR (residues 5-227); experiment: ITC; with zinc (+), RsrA preincubated with 1 mM ZnCl2 and buffer exchanged; direct titration for weaker binding mutants (methods: 10 μM RsrA in the cell, 100 μM σR in the syringe); 35 °C, 50 mM Tris pH 7.5, 100 mM NaCl, 2 mM DTT; single binding site model
σ^R Trp88Ile Trp119Ile = target: T4, σ^R Trp88Ile Trp119Ile (Streptomyces coelicolor, UniProt Q7AKG9 5-227, Trp88Ile | Trp119Ile); experiment: stopped-flow tryptophan fluorescence; dissociation by competition, with zinc: 2.5 μM complex mixed with 25 μM σ^R Trp88Ile Trp119Ile (10-fold excess); 25 or 35 °C, 50 mM Tris pH 7.5, 100 mM NaCl
T4 construct: ECF sigma factor σ^R (SigR) of Streptomyces coelicolor; both tryptophans replaced; The limits 5-227 are those stated for the tagless wild-type construct; source: E. coli BL21(DE3), purified as wild-type σ^R ("All σ^R mutants were similarly purified")

σR (residues 5-227) [11] = target: T1, σR (residues 5-227); experiment: ITC; with zinc (+); 35 °C, 50 mM Tris pH 7.5, 100 mM NaCl, 2 mM DTT; the table does not tell whether this sub-nanomolar value came from a direct or a competition titration
σR (residues 5-227) [12] = target: T1, σR (residues 5-227); experiment: ITC; without zinc (-); direct titration; 35 °C, 50 mM Tris pH 7.5, 100 mM NaCl, 2 mM DTT; single binding site model

B1: RsrA wild type (natural protein, Streptomyces coelicolor, UniProt Q7AKG8 1-105, looked up)
chain: MSCGEPHETDCSEILDHLYEFLDKEMPDSDCVKFEHHFEECSPCLEKYGLEQAVKKLVKRCCGQDDVPGDLRAKVMGRLDLIRSGQSVPEHDVAAAPSSSAPQES
notes: Reduced protein; used with one equivalent of zinc or after EDTA treatment without zinc (told by the assay); also called RsrAred.Zn2+ (with one zinc); RsrAred (without zinc); source: E. coli BL21(DE3) pLysS, purified by a His-tag that was removed by thrombin; not shown: His tag, N-terminal, cleaved
Kd (σR (residues 5-227) [1]): 62.4 nM
koff (σR (residues 5-227) [1]): 1.08 s⁻¹
kon (σR (residues 5-227) [1]): 1.73e+07 M⁻¹ s⁻¹
Kd (σR (residues 5-227) [2]): 24.9 nM
koff (σR (residues 5-227) [2]): 0.286 s⁻¹
kon (σR (residues 5-227) [2]): 1.15e+07 M⁻¹ s⁻¹
Kd (σR (residues 5-227) [3]): 0.13 nM
koff (σR (residues 5-227) [3]): 0.00071 s⁻¹
kon (σR (residues 5-227) [3]): 5.4e+06 M⁻¹ s⁻¹
Kd (σR Trp88Ile Trp119Ile): 0.173 nM
stoichiometry N (σR Trp88Ile Trp119Ile): 1.17
Kd (σR (residues 5-227) [4]): 0.27 nM
koff (σR (residues 5-227) [4]): 0.0024 s⁻¹
kon (σR (residues 5-227) [4]): 8.9e+06 M⁻¹ s⁻¹

B2: RsrA (wild type), anti-sigma factor from Streptomyces coelicolor (natural protein, UniProt Q7AKG8 1-105, looked up)
chain: B1 chain
notes: Used reduced with one zinc ion at the ZAS motif (RsrA^red.Zn^2+) or reduced without zinc (EDTA-treated); the assay tells which; also called RsrA^red.Zn^2+; RsrA^red; source: E. coli BL21(DE3) pLysS, purified using a His-tag that was removed by thrombin cleavage; not shown: His-tag, N-terminal, cleaved
Kd [5]: 79.3 ± 4.2 nM
dH [5]: -16.26 ± 0.13 kcal/mol
stoichiometry N [5]: 0.97 ± 0.004
fold increase of koff without zinc against with zinc [6]: 400 fold
koff [6]: ~0.3 s⁻¹
fold, kinetically derived Kd at 25 °C lower than at 35 °C [7]: ~2 fold
Kd [8]: 0.78 nM and ~0.7 nM
dH [8]: -23.1 kcal/mol
stoichiometry N [8]: 1.01

B3: RsrA* Cys41His (natural protein, Streptomyces coelicolor, UniProt Q7AKG8 1-105, looked up)
chain: B1 chain with C3A, C31A, C41H, C61A, C62A
notes: source: E. coli BL21(DE3) pLysS, purified using a His-tag that was removed by thrombin cleavage; not shown: His-tag, N-terminal, cleaved
binding result [9]: binds

B4: RsrA V54A L57A (natural protein, Streptomyces coelicolor, UniProt Q7AKG8 1-105, looked up)
chain: B1 chain with V54A, L57A
notes: also called RsrA Val54Ala Leu57Ala; source: E. coli BL21(DE3) pLysS, purified by a His-tag that was removed by thrombin; not shown: His tag, N-terminal, cleaved
Kd (σR (residues 5-227) [10]): 105 nM

B5: RsrA* Cys11His (natural protein, Streptomyces coelicolor, UniProt Q7AKG8 1-105, looked up)
chain: B1 chain with C3A, C11H, C31A, C61A, C62A
notes: The complex with σ^R analysed by native MS has a theoretical mass of 40,128.08 Da, which may mean that tags were present in that sample; also called RsrA*^red.Zn^2+ Cys11His; source: E. coli BL21(DE3) pLysS, purified using a His-tag that was removed by thrombin cleavage; not shown: His-tag, N-terminal, cleaved
koff [7]: 0.064 s⁻¹
binding result (σ^R Trp88Ile Trp119Ile): binds

B6: RsrA* C11S (natural protein, Streptomyces coelicolor, UniProt Q7AKG8 1-105, looked up)
chain: B1 chain with C3A, C11S, C31A, C61A, C62A
notes: source: E. coli BL21(DE3) pLysS, purified by a His-tag that was removed by thrombin; not shown: His tag, N-terminal, cleaved
Kd (σR (residues 5-227) [10]): 79 nM

B7: RsrA* Cys11Ser Cys44Ser (natural protein, Streptomyces coelicolor, UniProt Q7AKG8 1-105, looked up)
chain: B1 chain with C3A, C11S, C31A, C44S, C61A, C62A
notes: as for B3
Kd [9]: 185 nM

B8: RsrA V75A L79A (natural protein, Streptomyces coelicolor, UniProt Q7AKG8 1-105, looked up)
chain: B1 chain with V75A, L79A
notes: also called RsrA Val75Ala Leu79Ala; source: E. coli BL21(DE3) pLysS, purified by a His-tag that was removed by thrombin; not shown: His tag, N-terminal, cleaved
Kd (σR (residues 5-227) [10]): 82.1 nM

B9: RsrA* C41S C44S (natural protein, Streptomyces coelicolor, UniProt Q7AKG8 1-105, looked up)
chain: B1 chain with C3A, C31A, C41S, C44S, C61A, C62A
notes: as for B6
Kd (σR (residues 5-227) [10]): 297 nM

B10: RsrA* Cys44His (natural protein, Streptomyces coelicolor, UniProt Q7AKG8 1-105, looked up)
chain: B1 chain with C3A, C31A, C44H, C61A, C62A
notes: as for B3
binding result [9]: binds

B11: RsrA* (RsrA with Cys3, Cys31, Cys61 and Cys62 mutated to alanine) (natural protein, Streptomyces coelicolor, UniProt Q7AKG8 1-105, looked up)
chain: B1 chain with C3A, C31A, C61A, C62A
notes: the four non-essential cysteines mutated to alanine; also called RsrA*^red.Zn^2+; source: E. coli BL21(DE3) pLysS, purified using a His-tag that was removed by thrombin cleavage; not shown: His-tag, N-terminal, cleaved
koff [7]: 0.0027 s⁻¹
binding result (σ^R Trp88Ile Trp119Ile): binds

B12: RsrA* C11S C44S (natural protein, Streptomyces coelicolor, UniProt Q7AKG8 1-105, looked up)
chain: B1 chain with C3A, C11S, C31A, C44S, C61A, C62A
notes: also called RsrA* Cys11Ser Cys44Ser; source: E. coli BL21(DE3) pLysS, purified by a His-tag that was removed by thrombin; not shown: His tag, N-terminal, cleaved
binding result (σR Trp88Ile Trp119Ile): binds

B13: RsrA* C11H C41H C44H (natural protein, Streptomyces coelicolor, UniProt Q7AKG8 1-105, looked up)
chain: B1 chain with C3A, C11H, C31A, C41H, C44H, C61A, C62A
notes: also called RsrA* Cys11His Cys41His Cys44His; source: E. coli BL21(DE3) pLysS, purified by a His-tag that was removed by thrombin; not shown: His tag, N-terminal, cleaved
Kd (σR (residues 5-227) [10]): 305 nM

B14: RsrA* (natural protein, Streptomyces coelicolor, UniProt Q7AKG8 1-105, looked up)
chain: B1 chain with C3A, C31A, C61A, C62A
notes: also called RsrA*red.Zn2+; source: E. coli BL21(DE3) pLysS, purified by a His-tag that was removed by thrombin; not shown: His tag, N-terminal, cleaved
Kd (σR (residues 5-227) [11]): 0.23 nM
Kd (σR (residues 5-227) [12]): 183 nM

B15: RsrA* Cys11His Cys41His Cys44His (natural protein, Streptomyces coelicolor, UniProt Q7AKG8 1-105, looked up)
chain: B1 chain with C3A, C11H, C31A, C41H, C44H, C61A, C62A
notes: Non-oxidative control; also called triple mutant; RsrA*^red.Zn^2+ Cys11His Cys41His Cys44His; source: E. coli BL21(DE3) pLysS, purified using a His-tag that was removed by thrombin cleavage; not shown: His-tag, N-terminal, cleaved
koff [7]: ~2.3 s⁻¹
binding result (σ^R Trp88Ile Trp119Ile): binds

B16: RsrA* C11S C41S (natural protein, Streptomyces coelicolor, UniProt Q7AKG8 1-105, looked up)
chain: B1 chain with C3A, C11S, C31A, C41S, C61A, C62A
notes: as for B6
Kd (σR (residues 5-227) [10]): 240 nM
